Results on 2 substances are retold here after patent publication WO2005095988A2.

For assay [1], the target named is Bacillus anthracis protective antigen (PA) (Bacillus anthracis) (UniProt P13423).
Assay [2] shares this target. This is another data set of the same source.

UniProt P13423, sequence (P13423 30-764 limits assumed): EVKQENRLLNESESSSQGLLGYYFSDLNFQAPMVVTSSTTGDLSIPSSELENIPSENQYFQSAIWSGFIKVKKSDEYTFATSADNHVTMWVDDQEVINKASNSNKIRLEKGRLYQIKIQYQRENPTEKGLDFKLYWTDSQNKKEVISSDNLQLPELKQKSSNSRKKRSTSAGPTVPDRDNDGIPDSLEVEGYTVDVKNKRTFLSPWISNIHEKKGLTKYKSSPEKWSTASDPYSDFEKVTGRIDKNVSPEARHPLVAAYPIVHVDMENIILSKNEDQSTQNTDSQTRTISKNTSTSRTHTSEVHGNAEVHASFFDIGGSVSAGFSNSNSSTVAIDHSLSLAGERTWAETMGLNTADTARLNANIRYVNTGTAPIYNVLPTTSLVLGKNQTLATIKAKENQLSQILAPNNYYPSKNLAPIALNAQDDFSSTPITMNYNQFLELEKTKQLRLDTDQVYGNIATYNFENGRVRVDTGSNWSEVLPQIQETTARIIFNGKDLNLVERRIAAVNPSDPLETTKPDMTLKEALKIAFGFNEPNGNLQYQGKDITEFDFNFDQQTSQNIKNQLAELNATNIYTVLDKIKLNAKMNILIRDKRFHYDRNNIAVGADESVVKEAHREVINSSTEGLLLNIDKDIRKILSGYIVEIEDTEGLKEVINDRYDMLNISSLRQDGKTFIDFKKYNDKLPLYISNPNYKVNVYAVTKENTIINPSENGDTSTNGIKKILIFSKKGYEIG

In turn, “NlpA-[14B7 scFv], anchored on the E. coli inner membrane (APEx)” had a fold higher mean fluorescence intensity compared to controls in assay [1] of 9 fold. For the same substance, in assay [2], the mean fluorescence was found to be 30. In turn, “NlpA-[M18 scFv], anchored on the E. coli inner membrane (APEx)” returned a mean fluorescence in assay [2] of 250.
